# Results: patent publication US20070129319
# Residue numbers refer to the chain shown, from its start.
# B1: GST-DUB-1 fusion protein (pGEX-DUB-1) (protein)
# chain: MVVALSFPEADPALSSPDAPELHQDEAQVVEELTVNGKHSLSWESPQGPGCGLQNTGNSCYLNAALQCLTHTPPLADYMLSQEHSQTCCSPEGCKLCAMEALVTQSLLHSHSGDVMKPSHILTSAFHKHQQEDAHEFLMFTLETMHESCLQVHRQSKPTSEDSSPIHDIFGGWWRSQIKCLLCQGTSDTYDRFLDIPLDISSAQSVKQALWDTEKSEELCGDNAYYCGKCRQKMPASKTLHVHIAPKVLMVVLNRFSAFTGNKLDRKVSYPEFLDLKPYLSEPTGGPLPYALYAVLVHDGATSHSGHYFCCVKAGHGKWYKMDDTKVTRCDVTSVLNENAYVLFYVQQANLKQVSIDMPEGRINEVLDPEYQLKKSRRKKHKKKSPFTEDLGEPCENRDKRAIKETSLGKGKVLQEVNHKKAGQKHGNTKLMPQKQNHQKAGQNLRNTEVELDLPADAIVIHQPRSTANWGRDSPDKENQPLHNADRLLTSQGPVNTWQLCRQEGRRRSKKGQNKNKQGQRLLLVC
# B2: GST-DUB-1C60S fusion protein (pGEX-DUB-1 (C60)) (protein)
# chain: B1 chain with C60S
# Columns and labels:
# [1] = system: ubiquitin-Met-beta-galactosidase fusion protein
# [2] = target: ubiquitin-Met-beta-galactosidase fusion protein; remark: listed apart in the source
Molecule,cleavage of ubiquitin from the ubiquitin-Met-beta-galactosidase fusion protein (immunoblot with anti-beta-galactosidase) [1],cleavage of the Ub-Met-beta-gal fusion [2]
GST-DUB-3C89S fusion protein (pGEX-DUB-3C89S),this activity was ablated by mutating the cysteine residue (C89S) conserved within the active site,–
GST-DUB-3 fusion protein (pGEX-DUB-3),DUB-3 displayed deubiquitinating activity at least equivalent to that of DUB-1,–
B1,–,Deubiquitinating activity was demonstrated for both DUB-1 and DUB-3 fusion proteins by the cleavage of the Ub-Met-β-gal fusion
B2,–,DUB-1C60S (lane 3) and DUB-3C89S (lane 5) are catalytically inactive
